Where two headings read alike, the source gives them in different places. Values belong to the substance of their own block, whether it stands above or below them.
Columns and labels:
human GPRC5D (human) [1] = target: human GPRC5D (human) (UniProt Q9NZD1); test: flow cytometry, human GPRC5D-CHOK1 cells; control
human BCMA (human) [2] = target: human BCMA (human) (UniProt Q02223); test: flow cytometry, human BCMA-CHOK1 cells; control
[3] = target: cynomolgus monkey GPRC5D (cynomolgus monkey); test: flow cytometry, cynomolgus GPRC5D-CHOK1 cells; control
Sequence of cynomolgus monkey GPRC5D (cynomolgus monkey) (Q9NZD1 other isoform, or with tags, fused parts or gaps): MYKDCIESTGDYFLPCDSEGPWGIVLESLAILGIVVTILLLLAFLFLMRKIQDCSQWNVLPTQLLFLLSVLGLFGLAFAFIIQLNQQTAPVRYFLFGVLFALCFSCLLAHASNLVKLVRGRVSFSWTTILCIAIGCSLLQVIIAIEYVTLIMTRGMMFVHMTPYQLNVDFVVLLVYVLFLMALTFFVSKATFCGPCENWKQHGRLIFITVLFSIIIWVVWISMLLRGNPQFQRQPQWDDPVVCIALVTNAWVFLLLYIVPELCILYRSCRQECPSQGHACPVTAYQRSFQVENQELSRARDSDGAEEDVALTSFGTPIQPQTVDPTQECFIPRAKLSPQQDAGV

human GPRC5D (human) [4] = target: human GPRC5D (human) (UniProt Q9NZD1); test: flow cytometry, NCI-H929 cells; control
[5] = target: cynomolgus monkey BCMA (cynomolgus monkey); test: flow cytometry, cynomolgus BCMA-CHOK1 cells; control
Sequence of cynomolgus monkey BCMA (cynomolgus monkey) (Q02223 other isoform, or with tags, fused parts or gaps): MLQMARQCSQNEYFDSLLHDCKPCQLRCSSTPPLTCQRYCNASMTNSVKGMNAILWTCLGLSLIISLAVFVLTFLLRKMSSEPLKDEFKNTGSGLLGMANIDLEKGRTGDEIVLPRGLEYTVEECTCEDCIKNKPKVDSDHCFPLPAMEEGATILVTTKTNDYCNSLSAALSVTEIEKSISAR

human BCMA (human) [6] = target: human BCMA (human) (UniProt Q02223); test: flow cytometry, human BCMA-CHOK1 cells; control; remark: listed apart in the source
[7] = target: cynomolgus monkey BCMA (cynomolgus monkey); test: flow cytometry, cynomolgus BCMA-CHOK1 cells; control; remark: listed apart in the source
[8] = target: cynomolgus monkey GPRC5D (cynomolgus monkey); test: flow cytometry, cynomolgus GPRC5D-CHOK1 cells; control; remark: listed apart in the source
[9] = target: human CD3 protein (Acro, Cat. No. CDD-H52W1) (human) (UniProt P07766); test: SPR (Biacore), CD3 immobilised on CM5, antibody as analyte, 1:1 fit
Sequence of human CD3 protein (Acro, Cat. No. CDD-H52W1) (human) (P07766 23-126): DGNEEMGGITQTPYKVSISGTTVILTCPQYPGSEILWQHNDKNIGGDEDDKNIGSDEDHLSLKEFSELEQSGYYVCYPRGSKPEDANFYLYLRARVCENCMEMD

[10] = target: cynomolgus monkey CD3 protein (Acro, Cat. No. CDD-C52W4) (cynomolgus monkey) (UniProt Q95LI5); test: as above
Sequence of cynomolgus monkey CD3 protein (Acro, Cat. No. CDD-C52W4) (cynomolgus monkey) (Q95LI5 22-117): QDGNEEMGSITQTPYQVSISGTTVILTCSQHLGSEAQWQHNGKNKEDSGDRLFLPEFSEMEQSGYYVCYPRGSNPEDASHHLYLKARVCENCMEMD

human BCMA (human) [11] = target: human BCMA (human) (UniProt Q02223); test: flow cytometry, human BCMA-CHOK1 cells
[12] = target: human CD3 on cells (Jurkat cells, human PBMCs) (human) (UniProt P07766); test: flow cytometry, human PBMCs
Sequence of human CD3 on cells (Jurkat cells, human PBMCs) (human) (P07766 23-207): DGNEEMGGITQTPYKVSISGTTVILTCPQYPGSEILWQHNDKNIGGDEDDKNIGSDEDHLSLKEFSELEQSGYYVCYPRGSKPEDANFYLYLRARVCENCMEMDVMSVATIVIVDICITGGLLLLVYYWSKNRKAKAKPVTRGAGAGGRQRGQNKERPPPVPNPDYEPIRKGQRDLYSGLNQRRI

[13] = target: cynomolgus monkey BCMA (cynomolgus monkey); test: flow cytometry, cynomolgus BCMA-CHOK1 cells
[14] = target: cynomolgus monkey CD3 on cyno PBMCs (cynomolgus monkey) (UniProt Q95LI5); test: flow cytometry, cyno PBMCs
Sequence of cynomolgus monkey CD3 on cyno PBMCs (cynomolgus monkey) (Q95LI5 22-198): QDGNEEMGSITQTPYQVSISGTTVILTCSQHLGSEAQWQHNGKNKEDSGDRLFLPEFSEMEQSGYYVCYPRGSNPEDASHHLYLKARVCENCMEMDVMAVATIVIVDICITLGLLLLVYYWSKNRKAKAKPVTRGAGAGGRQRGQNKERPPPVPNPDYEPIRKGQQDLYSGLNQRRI

human GPRC5D (human) [15] = target: human GPRC5D (human) (UniProt Q9NZD1); test: flow cytometry, human GPRC5D-CHOK1 cells
soluble BCMA = soluble BCMA (UniProt Q02223); test: cell-based or functional assay
Sequence of soluble BCMA (Q02223 1-54 limits assumed): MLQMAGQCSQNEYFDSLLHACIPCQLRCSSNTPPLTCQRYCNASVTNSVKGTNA

[16] = target: cynomolgus monkey BCMA protein (Acro, Cat. No. BCA-C52H7) (cynomolgus monkey); test: SPR (Biacore), antibody captured by anti-human IgG Fc, BCMA as analyte, 1:1 fit
[17] = target: human BCMA protein (Acro, Cat. No. BCA-H522y) (human) (UniProt Q02223); test: as above
Sequence of human BCMA protein (Acro, Cat. No. BCA-H522y) (human) (Q02223 1-54 limits assumed): as above

human BCMA (human) [18] = target: human BCMA (human) (UniProt Q02223); test: flow cytometry, RPMI8226 cells (express BCMA and GPRC5D)
human BCMA (human) [19] = target: human BCMA (human) (UniProt Q02223); test: flow cytometry, NCI-H929 cells (express BCMA and GPRC5D)
[20] = target: human CD3 on cells (Jurkat cells, human PBMCs) (human) (UniProt P07766); test: flow cytometry, Jurkat cells
human GPRC5D (human) [21] = target: human GPRC5D (human) (UniProt Q9NZD1); test: flow cytometry, human GPRC5D-CHOK1 cells; negative control
[22] = target: human CD3 on cells (Jurkat cells, human PBMCs) (human) (UniProt P07766); test: flow cytometry, Jurkat cells; negative control
[23] = target: dual targets human BCMA and human GPRC5D on tumor cells (NCI-H929, RPMI8226) (human); test: flow cytometry, NCI-H929 cells (express BCMA and GPRC5D); negative control
Sequence of dual targets human BCMA and human GPRC5D on tumor cells (NCI-H929, RPMI8226) (human) (chain, as listed by the source, chain 1 of 2): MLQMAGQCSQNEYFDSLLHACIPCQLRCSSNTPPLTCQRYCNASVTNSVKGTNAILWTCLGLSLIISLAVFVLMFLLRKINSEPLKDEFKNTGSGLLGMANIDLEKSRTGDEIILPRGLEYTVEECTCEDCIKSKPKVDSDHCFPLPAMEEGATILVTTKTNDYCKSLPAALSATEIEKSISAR
Sequence of dual targets human BCMA and human GPRC5D on tumor cells (NCI-H929, RPMI8226) (human) (chain, as listed by the source, chain 2 of 2): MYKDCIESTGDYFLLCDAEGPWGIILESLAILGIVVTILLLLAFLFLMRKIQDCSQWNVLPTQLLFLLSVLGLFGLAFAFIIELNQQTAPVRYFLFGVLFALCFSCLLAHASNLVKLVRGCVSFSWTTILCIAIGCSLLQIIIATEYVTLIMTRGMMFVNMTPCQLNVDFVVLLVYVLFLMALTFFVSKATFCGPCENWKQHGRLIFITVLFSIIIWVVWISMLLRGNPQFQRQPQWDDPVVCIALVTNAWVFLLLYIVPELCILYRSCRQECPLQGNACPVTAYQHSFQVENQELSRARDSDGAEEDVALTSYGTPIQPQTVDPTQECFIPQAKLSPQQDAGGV

human BCMA (human) [24] = target: human BCMA (human) (UniProt Q02223); test: flow cytometry, human BCMA-CHOK1 cells; negative control
[25] = target: dual targets human BCMA and human GPRC5D on tumor cells (NCI-H929, RPMI8226) (human); test: flow cytometry, RPMI8226 cells (express BCMA and GPRC5D); negative control
[26] = target: cynomolgus monkey CD3 on cyno PBMCs (cynomolgus monkey) (UniProt Q95LI5); test: flow cytometry, cyno PBMCs; negative control
[27] = target: human CD3 on cells (Jurkat cells, human PBMCs) (human) (UniProt P07766); test: flow cytometry, human PBMCs; negative control

Sequence of human GPRC5D (human) (Q9NZD1 whole entry): as the sequence (chain, as listed by the source, chain 2 of 2) above
Sequence of human BCMA (human) (Q02223 whole entry): as the sequence (chain, as listed by the source, chain 1 of 2) above

- Top MFI (human GPRC5D (human) [1]): 36 MFI
- Top MFI (human BCMA (human) [2]): 89.1 MFI
- Top MFI [3]: 1840 MFI
- Top MFI (human GPRC5D (human) [4]): 178 MFI
- Top MFI [5]: 382 MFI
- Top MFI (human BCMA (human) [6]): 232 MFI
- Top MFI [7]: 82.6 MFI
- Top MFI [8]: 85 MFI
Substance: IgG1 AA (antibody)

- Kd [9]: 18 nM
- koff [9]: 0.00201 s⁻¹
- kon [9]: 112000 M⁻¹ s⁻¹
- Kd [10]: 22.2 nM
- koff [10]: 0.00379 s⁻¹
- kon [10]: 170000 M⁻¹ s⁻¹
Substance: Talquetamab analogue (GPRC5D/CD3) (bispecific antibody)

Substance: Teclistamab analogue (BCMA/CD3) (bispecific antibody)
- EC50 (human BCMA (human) [11]): 2.63 nM
- Top MFI (human BCMA (human) [11]): 2280 MFI
- EC50 [12]: 6.06 nM
- Top MFI [12]: 672 MFI
- EC50 [13]: 15.3 nM
- Top MFI [13]: 1770 MFI
- EC50 [14]: 55.8 nM
- Top MFI [14]: 2060 MFI
- Top MFI (human GPRC5D (human) [15]): 160 MFI
- Ratio (EC50) of TDCC on NCI-H929, 2.5 ug/ml BCMA against 0 ug/ml BCMA (soluble BCMA): 21 fold
- fold change of TDCC EC50 on NCI-H929 in the presence of 2500 ng/ml soluble BCMA (soluble BCMA): 25 fold
- Kd [16]: 8.49 nM
- koff [16]: 0.0235 s⁻¹
- kon [16]: 2.77e+06 M⁻¹ s⁻¹
- Kd [17]: 0.379 nM
- koff [17]: 0.00135 s⁻¹
- kon [17]: 3.55e+06 M⁻¹ s⁻¹
- EC50 (human BCMA (human) [18]): 1.17 nM
- Top MFI (human BCMA (human) [18]): 169 MFI
- Kd [9]: 21 nM
- koff [9]: 0.00522 s⁻¹
- kon [9]: 248000 M⁻¹ s⁻¹
- Kd [10]: 21.1 nM
- koff [10]: 0.00336 s⁻¹
- kon [10]: 159000 M⁻¹ s⁻¹
- EC50 (human BCMA (human) [19]): 2.43 nM
- Top MFI (human BCMA (human) [19]): 669 MFI
- EC50 [20]: 3.22 nM
- Top MFI [20]: 825 MFI

- Top MFI (human GPRC5D (human) [21]): 100 MFI
- Top MFI [22]: 77.6 MFI
- Top MFI [23]: 104 MFI
- Top MFI (human BCMA (human) [24]): 119 MFI
- Top MFI [25]: 112 MFI
- Top MFI [26]: 93.3 MFI
- Top MFI [27]: 96.1 MFI
Substance: hIgG1 LALA isotype (Biointron, Cat. No. B109802) (antibody)

Source: EP4663662A1
